Measured values from patent publication US20240287172A1 (SCIRHOM, published 2024).

B1: antibody 3 (antibody, V domains shown)
VH: QVTLKESGPGILQPSQTLSLTCSFSGFSLTTFAMGIGWVRQPSGKGLEWLAHIWWDGEKYNNPVLKSRLTISKDTSKNQVFLRIANVDTPDTATYYCARISSIYYIIDNWGQGTSVTVSS
VL: DIVLTQSPATLSVTPGHSVSLSCRASQSISNNLHWYQKKSHESPRLLIKYVSQSISGIPSRFSGSGSGTDFTLSINSVETEDFGMYFCQQSYNWPLTFGAGTKLELK
notes: mouse IgG, kappa light chain; also called clone #3; purified antibody 3
B2: antibody 48 (antibody, V domains shown)
VH: QVQLQQSGTELVRPGTSVKVSCKASGYAFTNYLIEWVKQRPGQGLEWIGVINPGSGFTKYNEKFKGKATLTADKSSSTVYMHLSSLTSEDSAVYFCARGLYRAMDYWGQGTSVTVSS
VL: DIQMTQSPASQSASLGESVTITCLASQTIATWLAWYQQKPGKSPQLLIYGATTLADGVPSRFSGGGSGTKFSFKISSLQAEDFVSYYCQQLYSTPYTFGGGTKLEIK
notes: mouse IgG, kappa light chain; also called clone #48; purified antibody 48

What was measured:
hiR2-FL-P575A-T7 = target: T1, hiR2-FL-P575A-T7 (human, UniProt Q6PJF5 1-856); assay: FACS on MEF-DKO cells expressing the variant, 3 µg/ml antibody
T1 sequence: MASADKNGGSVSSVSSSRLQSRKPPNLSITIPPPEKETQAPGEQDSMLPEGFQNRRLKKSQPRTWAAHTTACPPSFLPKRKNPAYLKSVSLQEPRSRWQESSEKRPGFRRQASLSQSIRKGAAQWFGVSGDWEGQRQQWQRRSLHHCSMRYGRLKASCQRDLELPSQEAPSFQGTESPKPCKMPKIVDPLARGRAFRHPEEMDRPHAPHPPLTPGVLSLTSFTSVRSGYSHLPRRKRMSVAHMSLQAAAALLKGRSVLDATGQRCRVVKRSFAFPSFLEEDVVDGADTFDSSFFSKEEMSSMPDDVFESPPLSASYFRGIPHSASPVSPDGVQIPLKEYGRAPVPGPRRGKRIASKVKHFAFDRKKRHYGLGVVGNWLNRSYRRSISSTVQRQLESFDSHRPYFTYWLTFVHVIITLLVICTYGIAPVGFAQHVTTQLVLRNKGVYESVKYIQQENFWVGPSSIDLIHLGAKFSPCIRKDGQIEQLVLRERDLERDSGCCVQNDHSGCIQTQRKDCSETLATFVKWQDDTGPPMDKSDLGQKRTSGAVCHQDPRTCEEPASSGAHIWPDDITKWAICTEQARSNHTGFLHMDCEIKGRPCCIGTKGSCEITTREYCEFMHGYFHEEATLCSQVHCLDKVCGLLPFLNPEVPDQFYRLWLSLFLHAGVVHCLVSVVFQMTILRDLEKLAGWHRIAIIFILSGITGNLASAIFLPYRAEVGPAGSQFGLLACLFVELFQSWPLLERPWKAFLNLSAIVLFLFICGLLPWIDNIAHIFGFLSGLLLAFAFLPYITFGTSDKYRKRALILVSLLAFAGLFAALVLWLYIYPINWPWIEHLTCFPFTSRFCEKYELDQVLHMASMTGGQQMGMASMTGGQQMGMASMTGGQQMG
How it was run: (§1)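 Pelleted cells are resuspended in antibody at 3 μg/ml and kept on ice 1 hour, washed, then incubated with PE goat anti-mouse IgG F(ab′)2 diluted 1:100 on ice for 1 hour protected from light, washed again and analysed by flow cytometry.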

hiR2-FL-K525A-T7 = target: T2, hiR2-FL-K525A-T7 (human, UniProt Q6PJF5 1-856); assay: as above
T2 sequence: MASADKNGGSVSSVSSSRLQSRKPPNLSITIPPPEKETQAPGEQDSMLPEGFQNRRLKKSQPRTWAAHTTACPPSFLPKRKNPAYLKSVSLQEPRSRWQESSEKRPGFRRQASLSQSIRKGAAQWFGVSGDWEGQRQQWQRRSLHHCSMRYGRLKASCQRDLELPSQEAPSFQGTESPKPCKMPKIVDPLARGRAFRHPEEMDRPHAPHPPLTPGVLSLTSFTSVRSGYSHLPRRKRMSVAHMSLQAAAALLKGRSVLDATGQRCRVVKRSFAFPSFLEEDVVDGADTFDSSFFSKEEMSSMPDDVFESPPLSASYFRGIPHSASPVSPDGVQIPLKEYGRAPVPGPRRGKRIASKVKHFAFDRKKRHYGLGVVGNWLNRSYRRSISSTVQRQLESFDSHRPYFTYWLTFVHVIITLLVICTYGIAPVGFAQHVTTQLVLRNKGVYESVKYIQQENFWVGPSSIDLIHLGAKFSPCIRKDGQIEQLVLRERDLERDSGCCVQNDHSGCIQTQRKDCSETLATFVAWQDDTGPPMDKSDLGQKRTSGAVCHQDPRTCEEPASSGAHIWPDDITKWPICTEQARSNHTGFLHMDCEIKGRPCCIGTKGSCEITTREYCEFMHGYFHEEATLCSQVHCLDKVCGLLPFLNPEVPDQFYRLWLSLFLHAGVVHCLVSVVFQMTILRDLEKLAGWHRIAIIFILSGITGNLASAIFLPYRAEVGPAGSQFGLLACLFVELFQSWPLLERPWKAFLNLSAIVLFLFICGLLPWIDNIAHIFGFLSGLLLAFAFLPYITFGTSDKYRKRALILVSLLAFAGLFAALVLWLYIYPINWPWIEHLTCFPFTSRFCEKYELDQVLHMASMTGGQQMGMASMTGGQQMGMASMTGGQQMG
How it was run: as §1

Row | Binder | loss of binding vs wild type (hiR2-FL-P575A-T7) [%] | loss of binding vs wild type (hiR2-FL-K525A-T7) [%]
1 | B1 | ≥ 30 | –
2 | B2 | – | ≥ 30
